T1: soluble RP105 (extracellular domain of mouse RP105, residues Thr21-Ala630) (mouse)
T1 sequence (Q62192 whole entry, looked up): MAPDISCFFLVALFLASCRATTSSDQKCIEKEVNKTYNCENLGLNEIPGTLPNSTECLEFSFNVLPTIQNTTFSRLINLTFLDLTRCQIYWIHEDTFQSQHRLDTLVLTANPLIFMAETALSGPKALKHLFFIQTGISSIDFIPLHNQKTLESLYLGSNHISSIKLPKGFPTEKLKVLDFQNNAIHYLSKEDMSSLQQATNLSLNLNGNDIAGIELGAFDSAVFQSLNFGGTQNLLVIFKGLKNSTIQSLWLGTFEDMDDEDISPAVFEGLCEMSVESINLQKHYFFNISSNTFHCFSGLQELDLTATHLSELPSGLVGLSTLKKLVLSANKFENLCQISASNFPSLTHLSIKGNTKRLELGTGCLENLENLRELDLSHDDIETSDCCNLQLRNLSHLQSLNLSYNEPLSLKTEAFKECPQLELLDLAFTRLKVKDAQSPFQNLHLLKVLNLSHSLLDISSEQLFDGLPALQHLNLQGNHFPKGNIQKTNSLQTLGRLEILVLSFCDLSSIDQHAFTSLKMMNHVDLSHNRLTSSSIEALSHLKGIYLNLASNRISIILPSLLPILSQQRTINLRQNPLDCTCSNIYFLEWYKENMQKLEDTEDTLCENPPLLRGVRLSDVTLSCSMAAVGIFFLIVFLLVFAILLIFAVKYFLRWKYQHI

B1: mouse MD1 without its native signal sequence (residues Asp20-Ser162) (natural protein)
chain: DHGSENGWPKHTACNSGGLEVVYQSCDPLQDFGLSIDQCSKQIQSNLNIRFGIILRQDIRKLFLDITLMAKGSSILNYSYPLCEEDQPKFSFCGRRKGEQIYYAGPVNNPGLDVPQGEYQLLLELYNENRATVACANATVTSSAAA
modifications: differential N-glycosylation at Asn96 and Asn156

Legend:
[1] = biological target: solRP105-MD1 complex (mouse) (UniProt O88188); assay: SEC-MALS; WTC-030S5 column (Wyatt); 50 mM Tris-Cl pH 8.0, 300 mM NaCl; 0.5 ml/min; purified solRP105-MD1 complex
[2] = biological target: solRP105-MD1 complex (mouse) (UniProt O88188); assay: SEC; Superdex 200 PC3.2/30; 50 mM Tris-Cl pH 8.0, 300 mM NaCl; 0.05 ml/min; purified solRP105 and purified solRP105-MD1 complex
[3] = biological target: T1, soluble RP105 (extracellular domain of mouse RP105, residues Thr21-Ala630) (mouse); assay: SEC-MALS; WTC-030S5 column (Wyatt); 50 mM Tris-Cl pH 8.0, 300 mM NaCl; 0.5 ml/min; purified solRP105-MD1 complex

| Molecule | stoichiometry N (RP105-MD1 units per complex) [1] | stoichiometry N (RP105-MD1 units per complex) [2] | stoichiometry N (MD1 per RP105 (2:2)) [3] |
| --- | --- | --- | --- |
| solRP105-MD1 complex (from UniProt O88188 20-162) | 2 | 2 | – |
| B1 | – | – | 1 |
